# Read-outs that look alike come from different tables or passages of the source.
# How the values were obtained:
# [1] = biological target: E-cadherin ECD (Mus musculus) (UniProt P09803); details: cited from earlier work
# [2] = biological target: E-cadherin ECD (Mus musculus) (UniProt P09803); details: cited from earlier work; remark: listed apart in the source
# [3] = biological target: W2A E-cadherin/ATH monomer (E-cadherin extracellular domains EC1-EC5, W2A, N20C); experiment: cross-linking
# [4] = biological target: W2A E-cadherin/ATH monomer (E-cadherin extracellular domains EC1-EC5, W2A, N20C); experiment: single molecule AFM force measurement
# [5] = biological target: W2A E-cadherin/ATH monomer (E-cadherin extracellular domains EC1-EC5, W2A, N20C); experiment: FRET or BRET
substance,measurement,setting,value
E-cadherin ECD (from UniProt P09803),Kd,[1],10 mM
same,Kd,[2],0.72 mM
"W2A E-cadherin/ATH monomer (E-cadherin extracellular domains EC1-EC5, W2A, N20C) (domain or fragment)",cross-linked dimer yield,[3],20%
same,bond strength (unbinding force),[4],17 pN
same,FRET efficiency (peak),[5],0.74

# — publication PMC4113602
